Test results: publication PMC6430086

Experiments:
[1] = target: HIV-1 envelope glycoprotein gp120 (HIV-1) (UniProt P04578)
[2] = target: HIV-1 envelope glycoprotein gp41 (HIV-1) (UniProt P04578)

Dioclea sclerocarpa lectin (natural protein)
EC50 to inhibit giant cell (syncytium) formation in SupT1 + HUT-78/HIV-1 co-cultures (fusion by gp120/gp41-CD4 interaction) [1]: 63 nM
EC50 to inhibit giant cell (syncytium) formation in SupT1 + HUT-78/HIV-1 co-cultures (fusion by gp120/gp41-CD4 interaction) [2]: 63 nM

Canavalia brasiliensis lectin (from UniProt P55915 1-237) (natural protein)
EC50 to inhibit giant cell (syncytium) formation in SupT1 + HUT-78/HIV-1 co-cultures (fusion by gp120/gp41-CD4 interaction) [1]: 75 nM
EC50 to inhibit giant cell (syncytium) formation in SupT1 + HUT-78/HIV-1 co-cultures (fusion by gp120/gp41-CD4 interaction) [2]: 75 nM

Canavalia maritima lectin (natural protein)
EC50 to inhibit giant cell (syncytium) formation in SupT1 + HUT-78/HIV-1 co-cultures (fusion by gp120/gp41-CD4 interaction) [1]: 75 nM
EC50 to inhibit giant cell (syncytium) formation in SupT1 + HUT-78/HIV-1 co-cultures (fusion by gp120/gp41-CD4 interaction) [2]: 75 nM

Dioclea lasiocarpa lectin (natural protein)
EC50 to inhibit giant cell (syncytium) formation in SupT1 + HUT-78/HIV-1 co-cultures (fusion by gp120/gp41-CD4 interaction) [1]: 46 nM
EC50 to inhibit giant cell (syncytium) formation in SupT1 + HUT-78/HIV-1 co-cultures (fusion by gp120/gp41-CD4 interaction) [2]: 46 nM
